Earlier results as cited in publication PMC11962798.

Target: Spike protein RBD (SARS-CoV-2) (UniProt P0DTC2)

For Bamlanivimab, the Kd is listed as 1.5 nM.
